Results taken from patent US20030170203A1 (Human Genome Sciences, published 2003).
Blank lines part the entries; values can stand above or below the binder they belong to.

Columns and labels:
[1] = target: T1, full length TNF-gamma-beta expressed on the cell surface (human, UniProt O95150 1-251); assay: flow cytometry on HEK293F stable transfectants expressing full length TNF-gamma-beta
T1 construct: whole, on cells; also called TNF-gamma-beta expressing cells
T1 sequence (looked up): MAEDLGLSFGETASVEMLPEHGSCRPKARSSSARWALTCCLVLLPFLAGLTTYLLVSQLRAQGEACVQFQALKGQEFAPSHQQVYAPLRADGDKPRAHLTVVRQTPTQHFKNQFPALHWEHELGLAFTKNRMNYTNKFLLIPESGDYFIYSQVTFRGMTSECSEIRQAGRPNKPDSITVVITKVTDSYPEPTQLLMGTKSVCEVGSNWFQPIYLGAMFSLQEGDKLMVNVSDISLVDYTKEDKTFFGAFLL
Method: TR6 has been previously described as a decoy receptor (Pitti et al., Nature 396:699-703 (1998); Yu et al., J. Biol Chem. 274:13733-6 (1999)) capable of competing with Fas and HveA for binding of FasL and LIGHT, respectively.
One million cells, in 0.1 ml of FACS buffer (PBS, 0.1% BSA, 0.1% NaN₃), were incubated with 0.1-1 microgram of protein or antibody at RT for 15 min. The cells were washed with 3 ml of FACS buffer, reacted with biotinylated primary antibody, and stained with PE-conjugated secondary antibody at RT for 15 min. Cells were then washed again, resuspended in 0.5 microgram/ml of propidium iodide, and live cells were gated and analyzed on a FACScan using the CellQuest software (BD Biosciences).

[2] = target: T2, FLAG-tagged soluble form of TNF-gamma-beta (aa 72-251) (human, UniProt O95150 72-251); assay: co-immunoprecipitation with protein A-Sepharose, anti-Flag M2 immunoblot
T2 construct: also called FLAG-TL1β; FLAG-TNF-gamma-beta; not shown: FLAG tag of vector pFLAGCMV1
T2 sequence (looked up): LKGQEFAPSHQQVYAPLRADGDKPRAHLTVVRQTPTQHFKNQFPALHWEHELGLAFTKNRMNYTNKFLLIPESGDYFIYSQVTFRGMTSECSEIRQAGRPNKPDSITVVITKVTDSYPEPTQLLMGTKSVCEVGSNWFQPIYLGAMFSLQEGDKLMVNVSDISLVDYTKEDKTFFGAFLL
Excerpt: The beads were then precipitated and washed extensively with PBST buffer (PBS, 0.5% Triton X-100) before boiled in SDS-sample buffer. Proteins were resolved on 4-20% Tris-Glycine gels (NOVEX), transferred to nitrocellulose membranes, and blotted with anti-Flag M2 monoclonal antibody (1 microgram/ml, Sigma) and horseradish peroxidase (HRP)-conjugated goat anti-mouse IgG antibody (0.5 microgram/ml).

[3] = target: T3, recombinant, untagged TNF-gamma-beta protein (aa 72-251) from E. coli (human, UniProt O95150 72-251); assay: BIAcore 3000 (SPR), receptor-Fc amine-coupled to CM5 chip, TNF-gamma-beta in flow
T3 construct: Purified from E. coli
T3 sequence (looked up): T2 sequence (looked up)
Method: TNFR-Fc were covalently immobilized to the BIAcore sensor chip (CM5 chip) via amine groups using N-ethyl-N′-(dimethylaminopropyl) carbodiimide/N-hydroxysuccinimide chemistry. […] The amount of bound protein was determined during washing of the flow cell with HBS buffer (10 mM HEPES, pH 7.4, 150 mM NaCl, 3.4 mM EDTA, 0.005% Surfactant P20). The flow cell surface was regenerated by displacing bound protein by washing with 20 microliters of 10 mM glycine-HCl, pH 2.3. For kinetic analysis, the on and off rates were determined using the kinetic evaluation program in BIAevaluation 3 software using a 1:1 binding model and the global analysis method.

- binding result [1]: no binding
- binding result [2]: no binding
B1: extracellular domain of human TACI (aa 1-159) fused at its C-terminus to the Fc domain of human IgG1 (Fc fusion, UniProt O14836 1-159, looked up, not shown: a dimerising Fc or GST)
chain: MSGLGRSRRGGRSRVDQEERFPQGLWTGVAMRSCPEEQYWDPLLGTCMSCKTICNHQSQRTCAAFCRSLSCRKEQGKFYDHLLRDCISCASICGQHPKQCAYFCENKLRSPVNLPPELRRQRSGEVENNSDNSGRYQGLEHRGSEASPALPGLKLSADQ
notes: range 1-159; also called TACI-Fc

- binding result [3]: no binding (tested: 3-370 nM)
B2: BCMA-Fc (Fc fusion, human, UniProt Q02223 1-54, looked up)
chain: MLQMAGQCSQNEYFDSLLHACIPCQLRCSSNTPPLTCQRYCNASVTNSVKGTNA
notes: Control receptor surface of the BIAcore analysis; not shown: Fc
